Measured values reported in US20240382606A1.
“And” between values parts separate entries of the source, which are not always exact repeats. Equal entries are not always repeated.

Tests used:
[1] = biological target: P14 T cell receptor (TCR that specifically recognizes LCMV GP33/D^b), on CD8+ T cells of P14 TCR transgenic mice (mouse)
[2] = biological target: P14 T cell receptor (TCR that specifically recognizes LCMV GP33/D^b), on CD8+ T cells of P14 TCR transgenic mice (mouse); assay: cell-based or functional assay
[3] = biological target: Pmel T cell receptor (cognate TCR against GP100/D^b), on CD8+ T cells of Pmel TCR transgenic mice (mouse); assay: cell-based or functional assay
[4] = biological target: P14 T cell receptor (TCR that specifically recognizes LCMV GP33/D^b), on CD8+ T cells of P14 TCR transgenic mice (mouse); assay: flow cytometry, APNs on CD8+ T cells from P14 mice, in vitro
[5] = biological target: P14 T cell receptor (TCR that specifically recognizes LCMV GP33/D^b), on CD8+ T cells of P14 TCR transgenic mice (mouse); assay: flow cytometry after intravenous injection of pMHC-LNPs carrying mCD19 CAR mRNA in p14 mice
[6] = biological target: P14 T cell receptor (TCR that specifically recognizes LCMV GP33/D^b), on CD8+ T cells of P14 TCR transgenic mice (mouse); remark: listed apart in the source

Substance | percent of CD8+ T cells targeted (DiD fluorescence) [1] | in vivo transfection efficiency (surface VHH) of P14 CD8+ splenocytes [2] | in vivo transfection efficiency of mCD19 CAR mRNA in CD8+ T cells of p14 mice [2] | in vivo transfection of CD8+ T cells with hCD19 CAR mRNA in p14 mice [2] | transfection efficiency with eGFP mRNA in P14 CD8+ T cells in vitro [2] | in vivo transfection of Pmel CD8+ splenocytes (surface VHH) [3] | percent of CD8+ T cells bound [4] | percent of CD8+ T cells targeted [5] | percent of CD8+ splenocytes stained [6] | percent binding (DiD fluorescence) [1] | percent of CD8+ T cells stained [4]
GP33/D^b antigen-presenting nanoparticle (APN): LCMV GP33 peptide […] on H2-D^b, lipid-anchore (peptide-MHC) | > 95% | 40% | 60% | 30% | 31% | 3% | 97% | > 80% |  |  | 
GP33/D^b tetramer (fluorescent streptavidin tetramer of […]/H2-D^b monomers) (from UniProt P01899 25-309) (peptide-MHC) |  |  |  |  |  |  |  |  | > 95% |  | 
GP100/D^b antigen-presenting nanoparticle (APN): GP100 peptide … on H2-D^b on an mRNA lipid nanoparticle (peptide-MHC) |  | < 2% |  |  |  | 30% and 40% |  |  |  | < 2% | 3.22%
